Reference: US20120184713A1, “Compositions and Methods for Modulation of Bone Density and Biomineralization” (priority 2011, published 2012)
Read-outs that look alike come from different tables or passages of the source.

What was measured:
FAM20C [1] = molecular target: T1, FAM20C (Mus musculus, UniProt Q5MJS3); assay: FAM20C in vitro kinase assay with dephosphorylated alpha-Casein as substrate; format: biochemical; conditions: 5 minute assays
T1 construct: His (from vector pcDNA3.1/V5-His B) (C); made in house; host or cells: HEK293T
T1 sequence (Q5MJS3 88-579): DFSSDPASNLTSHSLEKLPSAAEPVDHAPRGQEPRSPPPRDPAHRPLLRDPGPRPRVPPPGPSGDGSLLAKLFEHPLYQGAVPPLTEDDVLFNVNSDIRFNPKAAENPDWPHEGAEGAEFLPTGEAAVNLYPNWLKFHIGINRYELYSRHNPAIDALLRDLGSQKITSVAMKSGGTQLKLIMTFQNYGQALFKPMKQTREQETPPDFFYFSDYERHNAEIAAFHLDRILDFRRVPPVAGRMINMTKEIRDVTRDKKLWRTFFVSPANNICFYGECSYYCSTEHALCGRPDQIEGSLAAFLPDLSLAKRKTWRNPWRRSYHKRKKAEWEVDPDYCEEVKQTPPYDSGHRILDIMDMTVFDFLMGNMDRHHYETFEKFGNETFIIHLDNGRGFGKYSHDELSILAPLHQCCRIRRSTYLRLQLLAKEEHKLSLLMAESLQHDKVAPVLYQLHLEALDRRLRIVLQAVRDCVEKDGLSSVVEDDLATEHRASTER
Procedure: For FAM20C:V5 purification, pcDNA-FAM20C:V5 was transfected to HEK293T cells, and FAM20C:V5 was purified from conditioned media using anti-V5 agarose beads (Sigma). Condition media were incubated with anti-V5 affinity gel (Sigma) overnight at 4° C. Agarose beads were collected by centrifugation, and washed 5 times with TBS. Proteins were eluted using V5 peptides in TBS (Sigma, final concentration: 100 μg/ml). For purification of OPN:FLAG, BSP:FLAG, DMP1:FLAG, DSPP:FLAG and MEPE:FLAG, condition media were incubated with anti-FLAG M2 affinity gel (Sigma) overnight at 4° C. Agarose beads were collected by centrifugation, and washed 5 times with TBS. Purified quantification was performed on gels stained by SYPRO Ruby Protein Gel Stain (Invitrogen), using BSA as a standard.
FAM20C kinase assays were performed in 10 μl reactions, with 500 μM ATP, including 3 μCi (0.05 μM) of [gamma-^32P]ATP (6000 Ci/mmol, PerkinElmer), 50 mM Tris (pH 7.0), 10 mM MnCl2, 0.1% BSA, purified FAM20C:V5 (5 ng, […]), and dephosphorylated alpha-Casein (0.1 μg, Sigma). […] Radioactivity within the gels was detected using a Molecular Dynamics Phosphor Imager. For quantitation of gamma-^32P incorporation, bands were cut out of the gels using the Phosphor Imager pictures as a reference, and then counted by liquid scintillation using a Beckman Coulter LC6500. […]

[2] = tested on: Golgi apparatus casein kinase (G-CK); conditions: literature value (ref. 20), cited from earlier work
FAM20C [3] = molecular target: T1, FAM20C; assay: FAM20C kinase assay with peptide substrates (P81 phosphocellulose paper); format: biochemical; conditions: in vitro kinase reaction, FIG. 6
Procedure: FAM20C kinase assays were performed in 10 μl reactions, with 500 μM ATP, including 3 μCi (0.05 μM) of [gamma-^32P]ATP (6000 Ci/mmol, PerkinElmer), 50 mM Tris (pH 7.0), 10 mM MnCl2, 0.1% BSA, purified FAM20C:V5 (5 ng, […]), and dephosphorylated alpha-Casein (0.1 μg, Sigma). The kinase reaction was linear at 5 minutes, and the reaction rate was dependent on enzyme and substrate concentrations. Reactions were stopped by adding SDS sample buffer and boiling, and one half of the reaction volume was subjected to SDS-PAGE. Radioactivity within the gels was detected using a Molecular Dynamics Phosphor Imager. For quantitation of gamma-^32P incorporation, bands were cut out of the gels using the Phosphor Imager pictures as a reference, and then counted by liquid scintillation using a Beckman Coulter LC6500. Myelin Basic Protein (0.5 μg, NEB) and affinity-purified Fat2-3:FLAG (0.1 μg)^8 were used as control substrates. To determine pH-dependency, the pH in the reaction buffer was varied using Tris-HCl buffers. Synthesized peptides were designed from the sequence of human Osteopontin 115Asp to 132Leu, adding three basic amino acids (Arg-Lys-Arg) to its N-terminus to enable peptide binding to phosphocellulose paper (P81, Upstate). Peptides were purchased from Peptide2.0. Peptide1 ([…]; SEQ ID NO: 41), Peptide2 ([…]; SEQ ID NO: 42), Peptide3 ([…]; SEQ ID NO: 43), and Peptide4 ([…]; SEQ ID NO: 44).
(§1) FAM20C kinase assay with peptides substrates were performed in 10 μl reactions, with 500 μM ATP, including 3 μCi (0.05 μM) of [gamma-^32P]ATP (6000 Ci/mmol, PerkinElmer), 50 mM Tris (pH 7.0), 10 mM MnCl2, 0.1% BSA, purified FAM20C:V5 and peptides. Casein Kinase I (500 units, NEB) was used as a control kinase. mutant versions (5 ng, […]), and peptides (2.5 μg, 1 nmol as a standard condition. 250 ng, […] in FAM20C mutants). Reactions were stopped by adding 1.5 μl 0.1N—HCl, and one half of the reaction volume was pipetted on to P81 phospho-cellulose filter paper^27. The filter papers were washed with 0.5% phosphoric acid and subjected to liquid scintillation counting.

Casein Kinase I = molecular target: T2, Casein Kinase I (Rattus norvegicus, UniProt Q06486); assay: Casein Kinase I control kinase assay with peptide substrates; format: biochemical; conditions: in vitro kinase reaction, FIG. 6
T2 construct: purchased NEB
T2 sequence (Q06486 1-317 limits assumed): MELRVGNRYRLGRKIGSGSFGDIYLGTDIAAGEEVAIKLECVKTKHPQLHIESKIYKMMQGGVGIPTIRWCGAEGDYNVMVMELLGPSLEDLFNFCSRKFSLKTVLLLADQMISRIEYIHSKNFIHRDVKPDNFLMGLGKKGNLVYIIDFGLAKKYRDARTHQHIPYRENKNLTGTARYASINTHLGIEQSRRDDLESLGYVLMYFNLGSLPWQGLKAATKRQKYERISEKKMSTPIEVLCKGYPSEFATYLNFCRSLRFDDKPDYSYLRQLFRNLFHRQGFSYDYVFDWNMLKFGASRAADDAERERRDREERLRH
Procedure: as §1

Compound | phosphorylation of peptide by FAM20C (FAM20C [3]) | phosphorylation of peptide by CKI (Casein Kinase I) | also measured
Nc1ncnc2c1ncn2[C@@H]1O[C@H](COP(=O)(O)OP(=O)(O)OP(=O)(O)O)[C@@H](O)[C@H]1O [ATP] | – | – | Km (FAM20C [1]; FAM20C, dephosphorylated alpha casein as substrate, read-out: Km for ATP): 78 µM; Km ([2]; read-out: Km for ATP originally measured for G-CK): 80 µM
Casein | – | – | Km (FAM20C [1]; linear reaction conditions, average of several independent experiments, read-out: Michaelis constant (Km) of FAM20C for Casein): 1.5 µM; Km ([2]; read-out: Km for α-Casein for G-CK): 12 µM
RKRDDAHQSDEAHHSDESDEL [OPN-ASARM^2S-A, derivative in which the other two Ser residues were changed to Ala] | still efficiently phosphorylated | reduced, but similar levels of activity | –
RKRDDSHQADESHHADEADEL [OPN-ASARM^3S-A, peptide in which only the three G-CK consensus sites were changed to Ala] | phosphorylated much less effectively | reduced, but similar levels of activity | –
RKRDDSHQSDESHHSDESDEL [OPN-ASARM, amino acids 115-132 of human OPN with N-terminal Arg-Lys-Arg] | is a FAM20C substrate | phosphorylated | –
